Drawing on PMC7019770, this text covers response for five substances.

This assay addresses PRRSV SD16 virions (PRRSV-2 strain SD16). Kind of assay: ELISA-based virus capture assay. The note with it: plates coated with PRA mutant proteins; detection with PRRSV-convalescent swine serum and HRP-labeled goat anti-swine IgG; parent: est. 1.3; read off a plot.
With “PRA, C-terminal domain of MYH9 (recombinant, wild type) E1670A”, the response came out at 0.95 OD450.

Consider “PRA, C-terminal domain of MYH9 (recombinant, wild type) E1670A; K1673A; E1679A; I1683A”, for which the response is 1.1 OD450.

For “PRA, C-terminal domain of MYH9 (recombinant, wild type) E1679A”, the response was 0.99 OD450.

Consider “PRA, C-terminal domain of MYH9 (recombinant, wild type) I1683A”, for which the response worked out at 0.88 OD450.

As to “PRA, C-terminal domain of MYH9 (recombinant, wild type) K1673A”, the response is 0.9 OD450.
